B1: LINE1-mini (parent)
chain: GGCAGAGCUCAACACAGCGUGGCAAAGUGGCUGUGGCUAGACUGCC

The data set covers variants of B1. Briefly: self-cleavage, relative activity (ratio to wild type); higher = more cleavage; in vitro, sequencing; the parent is a self-cleaving ribozyme.
Turning to GCCAGAGCUCAACACAGCGUGACAAAGUGGCUGUGGCUAGACUGCC [G2C G22A], the self-cleavage worked out at 0.15.
Turning to GCCAGAGCUCAACACAGCGUGCCAAAGUGGCUGUGGCUAGACUGCC [G2C G22C], the self-cleavage is 0.05.
The figure for GCCAGAGCUCAACACAGCGUGUCAAAGUGGCUGUGGCUAGACUGCC [G2C G22U] is 0.23; for GCCAGAGCGCAACACAGCGUGGCAAAGUGGCUGUGGCUAGACUGCC [G2C U9G] it is 0.07; for GCCAGAGCACAACACAGCGUGGCAAAGUGGCUGUGGCUAGACUGCC [G2C U9A] it is 0.16.
With GCCAGAGCCCAACACAGCGUGGCAAAGUGGCUGUGGCUAGACUGCC [G2C U9C], the self-cleavage came out at 0.03.
The figure for GCCAGAGCUCAACACAGCGUGGCAAAGUGGCUGUGGCUAAACUGCC [G2C G40A] is 0.09.
GCCAGAGCUCAACACAGCGUGGCAAAGUGGCUGUGGCUACACUGCC [G2C G40C]: the self-cleavage worked out at 0.07.
Take GCCAGAGCUCAACACAGCGUGGCAAAGUGGCUGUGGCUAUACUGCC [G2C G40U]: the self-cleavage stood at 0.13.
Take GCCAGAGCUCAACACAGCGUGGCAAAGUAGCUGUGGCUAGACUGCC [G2C G29A]: the self-cleavage amounted to 0.1.
The same measure for GCCAGAGCUCAACACAGCGUGGCAAAGUCGCUGUGGCUAGACUGCC [G2C G29C]: 0.06; for GCCAGAGCUCAACACAGCGUGGCAAAGUUGCUGUGGCUAGACUGCC [G2C G29U]: 0.19; for GCCAGAGCUCAACACAGCGGGGCAAAGUGGCUGUGGCUAGACUGCC [G2C U20G]: 0.05.
The same measure for GCCAGAGCUCAACACAGCGCGGCAAAGUGGCUGUGGCUAGACUGCC [G2C U20C]: 0.08; for GCCAGAGCUCAACACAGCGAGGCAAAGUGGCUGUGGCUAGACUGCC [G2C U20A]: 0.06.
For GCCAGAGCUCAACACAGCGUGGCAAAGUGGCUGUGGCUAGACAGCC [G2C U43A], the self-cleavage came to 0.04.
The figure for GCCAGAGCUCAACACAUCGUGGCAAAGUGGCUGUGGCUAGACUGCC [G2C G17U] is 0.06; for GCCAGAGCUCAACACAACGUGGCAAAGUGGCUGUGGCUAGACUGCC [G2C G17A] it is 0.08; for GCCAGAGCUCAACACACCGUGGCAAAGUGGCUGUGGCUAGACUGCC [G2C G17C] it is 0.05.
With GCCAGAGCUCAACACAGCGUGGCAAAGUGGCUGCGGCUAGACUGCC [G2C U34C], the self-cleavage was found to be 0.06.
Regarding GCCAGAGCUCAACACAGCGUGGCAAAGUGGCUGAGGCUAGACUGCC [G2C U34A], the self-cleavage was 0.07.
The figure for GCCAGAGCUCAACACAGCGUGGCAAAGUGGCUGGGGCUAGACUGCC [G2C U34G] is 0.12; for GCCAGAUCUCAACACAGCGUGGCAAAGUGGCUGUGGCUAGACUGCC [G2C G7U] it is 0.28; for GCCAGAGCUCAACACAGCUUGGCAAAGUGGCUGUGGCUAGACUGCC [G2C G19U] it is 0.11.
GCCAGAGCUCAACACAGCAUGGCAAAGUGGCUGUGGCUAGACUGCC [G2C G19A]: the self-cleavage was 0.17.
The same measure for GCCAGAGCUCAACACAGCCUGGCAAAGUGGCUGUGGCUAGACUGCC [G2C G19C]: 0.16; for GCCAGAGCUCAACACAGCGUGGCAAAGUGGCAGUGGCUAGACUGCC [G2C U32A]: 0.17; for GCCAGAGCUCAACACAGCGUGGCAAAGUGGCCGUGGCUAGACUGCC [G2C U32C]: 0.08.
The same measure for GCCAGAGCUCAACACAGCGUGGCAAAGUGGCGGUGGCUAGACUGCC [G2C U32G]: 0.02.
The figure for GCCAGAGCUCAACACAGCGUGGCAAAGUGGCUGUGCCUAGACUGCC [G2C G36C] is 0.04; for GCCAGAGCUCAACACAGCGUGGCAAAGUGGCUGUGACUAGACUGCC [G2C G36A] it is 0.25; for GCCAGAGCUCAACACAGCGUGGCAAAGUGGCUGUGUCUAGACUGCC [G2C G36U] it is 0.1.
As to GCCAGAGCUCAACACAGCGUGGCAAAGUGGCUUUGGCUAGACUGCC [G2C G33U], the self-cleavage was found to be 0.05.
Consider GCCAGAGCUCAACACAGCGUGGCAAAGUGGCUCUGGCUAGACUGCC [G2C G33C], for which the self-cleavage was found to be 0.02.
With GCCAGAGCUCAACACAGCGUGGCAAAGUGGCUAUGGCUAGACUGCC [G2C G33A], the self-cleavage was 0.04.
The same measure for GCCAGAGCUCAACACAGCGUGGCAAAGCGGCUGUGGCUAGACUGCC [G2C U28C]: 0.09; for GCCAGAGCUCAACACAGCGUGGCAAAGAGGCUGUGGCUAGACUGCC [G2C U28A]: 0.23.
As for GCCAGAGCUCAACACAGCGUGGCAAAGGGGCUGUGGCUAGACUGCC [G2C U28G], the self-cleavage amounted to 0.05.
As to GCCAGAGCUCAACACAGCGUGGCAAAGUGGCUGUGGCAAGACUGCC [G2C U38A], the self-cleavage amounted to 0.06.
For GCCAGAGCUCAACACAGCGUGGCAAAGUGGCUGUGGCGAGACUGCC [G2C U38G], the self-cleavage was determined as 0.03.
In the case of GCCAGAGCUCAACACAGCGUGGCAAAGUGGCUGUGGCCAGACUGCC [G2C U38C], the self-cleavage stood at 0.04.
The same measure for GCCAGAGCUCAACACAGCGUGGCAAAGUGGCUGUUGCUAGACUGCC [G2C G35U]: 0.23.
The figure for GCCAGAGCUCAACACAGCGUGGCAAAGUGGCUGUAGCUAGACUGCC [G2C G35A] is 0.06.
The figure for GCCAGAGCUCAACACAGCGUGGCAAAGUGGCUGUCGCUAGACUGCC [G2C G35C] is 0.05; for GCCAGAGCUCAACACAGCGUGGCAAAGUGGCUGUGGCUAGACUUCC [G2C G44U] it is 0.14; for GCCAGAGCUCAACACAGCGUGGCAAAGUGGCUGUGGCUAGACUACC [G2C G44A] it is 0.17.
With GCCAGAGCUCAACACAGCGUGGCAAAGUGGCUGUGGCUAGACUCCC [G2C G44C], the self-cleavage worked out at 0.18.
Turning to GCCAGAGCUCAACACAGCGUGGCAAAGUGACUGUGGCUAGACUGCC [G2C G30A], the self-cleavage came to 0.24.
Turning to GCCAGAGCUCAACACAGCGUGGCAAAGUGCCUGUGGCUAGACUGCC [G2C G30C], the self-cleavage is 0.23.
The same measure for GCCAGAGCUCAACACAGCGUGGCAAAGUGUCUGUGGCUAGACUGCC [G2C G30U]: 0.29; for GCCAGAGCUCAACACAGCGUGGCAAAAUGGCUGUGGCUAGACUGCC [G2C G27A]: 0.13; for GCCAGAGCUCAACACAGCGUGGCAAACUGGCUGUGGCUAGACUGCC [G2C G27C]: 0.12.
Turning to GCCAGAGCUCAACACAGCGUGGCAAAUUGGCUGUGGCUAGACUGCC [G2C G27U], the self-cleavage stood at 0.14.
GCCAGAGCUCAACACAGCGUCGCAAAGUGGCUGUGGCUAGACUGCC [G2C G21C]: the self-cleavage was 0.25.
Turning to GCCAGAGCUCAACACAGCGUAGCAAAGUGGCUGUGGCUAGACUGCC [G2C G21A], the self-cleavage was determined as 0.51.
On to GCCAGAGCUCAACACAGCGUUGCAAAGUGGCUGUGGCUAGACUGCC [G2C G21U], for which the self-cleavage is 0.12.

Values taken from the RNAGym collection of RNA variant scans (doi:10.7554/elife.90254).
